For assay [1], the target named is ΔN HTRA1 wild type (human HTRA1 lacking the N-terminal IGFBP7-like fragment) (human) (UniProt Q92743). Description: SEC-MALS; Superdex 200 Increase 10/300, 2x PBS, 56 µl of 10 mg/ml protein (273 µM monomer equivalent; A173T 6.5 mg/ml, 178 µM); single proteins or D174R-S328A + R274Q mixed at a 1:1 ratio. For orientation: SEC sorts molecules by how far they enter the pores of the column.

For assay [2] the target is unchanged. In words: cross-linking; 0.5 µM HTRA1, 50 mM NaPi, 50 mM NaCl pH 8.0, 37 °C, 0.5% glutaraldehyde 2 min; silver staining or Western blot; single proteins or mixtures.
The target is the same in assay [3]. Description: native MS; binding experiments, 5 µM protein with VDAC2 peptide added at molar ratios, 200 mM ammonium acetate pH 6.8.
For assay [4] the target is unchanged. In words: SEC; analytical SEC, Agilent AdvanceBio SEC 300 Å column, 2x PBS, 10 µl of 10 mg/ml protein (273 µM monomer equivalent; A173T 6.5 mg/ml, 178 µM); single proteins or mixtures.
In assay [5] the target is VDAC2 peptide (C-terminus of Voltage Dependent Anion-selective Channel isoform 2). In words: VDAC2 titration of cleavage rate of peptidic fluorescence-quenched substrate, fitted to the hyperbolic weak-binding equation. The note with it: substrate 2 µM; HTRA1 wt 30 nM; R274Q 300 nM.
The target of assay [6] is ΔN HTRA1 A252T (human) (UniProt Q92743). Description: SEC-MALS; Superdex 200 Increase 10/300, 2x PBS, 56 µl of 10 mg/ml protein (273 µM monomer equivalent; A173T 6.5 mg/ml, 178 µM); single proteins or D174R-S328A + R274Q mixed at a 1:1 ratio.
For assay [7] the target is unchanged. In words: cross-linking; 0.5 µM HTRA1, 50 mM NaPi, 50 mM NaCl pH 8.0, 37 °C, 0.5% glutaraldehyde 2 min; silver staining or Western blot; single proteins or mixtures.
Assay [8] shares this target. Description: SEC; analytical SEC, Agilent AdvanceBio SEC 300 Å column, 2x PBS, 10 µl of 10 mg/ml protein (273 µM monomer equivalent; A173T 6.5 mg/ml, 178 µM); single proteins or mixtures.
Assay [9] addresses ΔN HTRA1 D174R-S328A (proteolytically inactive corrector variant) (human) (UniProt Q92743). In words: SEC-MALS; Superdex 200 Increase 10/300, 2x PBS, 56 µl of 10 mg/ml protein (273 µM monomer equivalent; A173T 6.5 mg/ml, 178 µM); single proteins or D174R-S328A + R274Q mixed at a 1:1 ratio.
Assay [10] addresses untagged ∆N∆PDZ HTRA1 R274Q used for NMR DOSY (human) (UniProt Q92743). Description: NMR DOSY; 100 µM HTRA1 alone, 50 mM potassium phosphate pH 6.7, 10% D2O, 25 °C.

Five substances from paper PMC11252331 can be followed below.

As usually defined, the stoichiometry N is the number of molecules, sites or subunits per partner or assembly. For the substance “ΔN HTRA1 wild type (human HTRA1 lacking the N-terminal IGFBP7-like fragment) (from UniProt Q92743 158-480) (domain or fragment)”, the stoichiometry N in assay [1], in assay [2], in [3] and in assay [4] was 3 in each case.

As a reminder, the Kd is a measure of binding affinity in units of concentration. High values mean lower affinity, low ones higher affinity. Substance “ΔN HTRA1 wild type (human HTRA1 lacking the N-terminal IGFBP7-like fragment) (from UniProt Q92743) R274Q” came in with a Kd in assay [5] of 12.1 µM.

For “ΔN HTRA1 A252T (from UniProt Q92743 158-480) (domain or fragment)”, the stoichiometry N with ΔN HTRA1 A252T (human) [6], with ΔN HTRA1 A252T (human) [7] and with ΔN HTRA1 A252T (human) [8] was 3 in each case.

“ΔN HTRA1 D174R-S328A (proteolytically inactive corrector variant) (from UniProt Q92743 158-480) (domain or fragment)”: the stoichiometry N in [9] amounted to 3.

The substance “untagged ∆N∆PDZ HTRA1 R274Q used for NMR DOSY (from UniProt Q92743 158-375) (domain or fragment)” came in with a stoichiometry N in assay [10] of 3.
